One experiment deals with T1, FcγRIIb (human, UniProt P31994 43-217).
T1 construct: extracellular domain; also called FcgRIIb; 2b
T1 sequence (looked up): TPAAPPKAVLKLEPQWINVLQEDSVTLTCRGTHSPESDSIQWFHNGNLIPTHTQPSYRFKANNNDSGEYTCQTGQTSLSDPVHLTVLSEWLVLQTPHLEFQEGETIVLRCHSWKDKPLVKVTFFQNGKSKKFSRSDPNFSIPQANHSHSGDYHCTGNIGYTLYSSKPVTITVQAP
Briefly: SPR (Biacore), relative binding. (Surface plasmon resonance follows binding to a sensor surface in real time, without labels.)

The target of the next experiment is T2, FcγRIIIa (human, UniProt P08637 17-208).
T2 construct: extracellular domain; also called FcgRIIIa; 3a
T2 sequence (P08637 17-208): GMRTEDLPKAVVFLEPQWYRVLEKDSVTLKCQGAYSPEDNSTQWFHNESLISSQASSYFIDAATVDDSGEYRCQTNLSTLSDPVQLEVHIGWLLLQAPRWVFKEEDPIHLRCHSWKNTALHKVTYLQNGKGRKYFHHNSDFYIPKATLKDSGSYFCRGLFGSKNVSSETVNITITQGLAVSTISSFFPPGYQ
Description: SPR (Biacore), relative binding.

Experiment [1] deals with T3, FcγRIIb, extracellular domain with C-terminal His tag (human, UniProt P31994 43-217).
T3 construct: extracellular domain; made in FreeStyle293 cells; analyte in the Biacore assay; also called 2b; FcgRIIb
T3 sequence (looked up): T1 sequence (looked up)
Description: SPR (Biacore), antibody captured, FcγR analyte; vs GpH7-A5/GpH7-B3/GpL16-k0 = 100. The protocol:
(§1) The heterodimerized antibodies He Abs in which one of the H chains was introduced with an alteration were assayed for their binding activities to each activating FcγR and inhibitory FcγR according to the method described in Example 4. […] The activating FcγRs in FIGS. 26, 27, 28, and 29 are FcγRIa, FcγRIIa (R), FcγRIIa (H), and FcγRIIIa, respectively.
(§2) Analysis of interaction between objective antibody and the FcγR was carried out using Biacore T100 (GE Healthcare). HBS-EP+ (GE Healthcare) was used as the running buffer, and the measurement temperature was set to 25° C. Chips produced by immobilizing the antigen peptide by the amine coupling method to a Series S Sencor Chip CM5 (GE Healthcare), or alternatively, chips produced by allowing preliminarily biotinylated antigen peptides to interact with and immobilize onto a Series S Sensor Chip SA (certified) (GE Healthcare) were used. Antibodies of interest were captured onto an antigen peptide-immobilized chip, and allowed to interact to each FcγR diluted with running buffer. To regenerate and repeatedly use the chip, the antibodies captured on the chip were washed off by reacting 10 mM glycine-HCl, pH 1.5.

In experiment [2] the target is T4, FcγRIIa R (FcγRIIa allotype with Arg at position 131), extracellular domain with C-terminal His tag (human, UniProt P12318 34-217).
T4 construct: extracellular domain; made in FreeStyle293 cells; analyte in the Biacore assay; also called FcγRIIa type R; 2aR
T4 sequence (looked up): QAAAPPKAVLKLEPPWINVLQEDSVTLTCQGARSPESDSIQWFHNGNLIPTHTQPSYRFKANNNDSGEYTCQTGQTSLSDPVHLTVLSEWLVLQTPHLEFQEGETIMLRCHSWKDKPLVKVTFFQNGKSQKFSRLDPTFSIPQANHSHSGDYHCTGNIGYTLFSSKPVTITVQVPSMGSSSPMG
The description is as above. The protocol: as §1, §2

For experiment [3], the target named is T5, FcγRIIb, extracellular domain with C-terminal His tag (human, UniProt P31994 43-217).
T5 construct: extracellular domain; also called 2b; FcgRIIb; not shown: His tag at the C terminus
T5 sequence (looked up): T1 sequence (looked up)
Description: SPR (Biacore), relative binding, GpH7-A5/GpH7-B3/GpL16-k0 = 100.

B1: GpH7-A5/GpH7-B3 variant L328_03V/GpL16-k0 (antibody, human IgG1, kappa)
heavy 1: not shown
heavy 2: not shown
light: DIVMTQSPLSLPVTPGEPASISCQASESLVHSNRNTYLHWYLQKPGQSPQLLIYKVSNRFSGVPDRFSGSGSGTDFTLKISRVEAEDVGVYYCSQNTHVPPTFGQGTKVEIERTVAAPSVFIFPPSDEQLKSGTASVVCLLNNFYPREAKVQWKVDNALQSGNSQESVTEQDSKDSTYSLSSTLTLSKADYEKHKVYACEVTHQGLSSPVTKSFNRGEC
notes: mutation in the GpH7-B3 chain only; also called He Ab
With B1, the He/Con_2b with FcγRIIb is 126 % of GpH7-A5/GpH7-B3/GpL16-k0. In addition, the He/Con_3a with FcγRIIIa is 78.7 % of GpH7-A5/GpH7-B3/GpL16-k0.

B2: GpH7-A5/GpH7-B3 variant N325_07I/GpL16-k0 (antibody, human IgG1, kappa)
heavy 1: not shown
heavy 2: not shown
light: B1 light
notes: as for B1
Consider B2, for which, in the experiment with FcγRIIb, the He/Con_2b is 171 % of GpH7-A5/GpH7-B3/GpL16-k0. The He/Con_3a with FcγRIIIa is 28.7 % of GpH7-A5/GpH7-B3/GpL16-k0.

B3: GpH7-A5/GpH7-B3 variant L328_13S/GpL16-k0 (antibody, human IgG1, kappa)
heavy 1: not shown
heavy 2: not shown
light: B1 light
notes: as for B1
On to B3, for which the He/Con_2b with FcγRIIb is 149 % of GpH7-A5/GpH7-B3/GpL16-k0. The He/Con_3a in the experiment with FcγRIIIa was 71.7 % of GpH7-A5/GpH7-B3/GpL16-k0.

B4: GpH7-A5/GpH7-B3 variant L328_09D/GpL16-k0 (antibody, human IgG1, kappa)
heavy 1: not shown
heavy 2: not shown
light: B1 light
notes: as for B1
In the case of B4, the He/Con_2b with FcγRIIb was 199 % of GpH7-A5/GpH7-B3/GpL16-k0. The He/Con_3a in the experiment with FcγRIIIa was 47.8 % of GpH7-A5/GpH7-B3/GpL16-k0.

B5: GpH7-A5/GpH7-B3 variant A327_07I/GpL16-k0 (antibody, human IgG1, kappa)
heavy 1: not shown
heavy 2: not shown
light: B1 light
notes: as for B1
With B5, in the experiment with FcγRIIb, the He/Con_2b is 127 % of GpH7-A5/GpH7-B3/GpL16-k0. Further, in the experiment with FcγRIIIa, the He/Con_3a was 42.4 % of GpH7-A5/GpH7-B3/GpL16-k0.

B6: GpH7-A5/GpH7-B3 variant N325_13S/GpL16-k0 (antibody, human IgG1, kappa)
heavy 1: not shown
heavy 2: not shown
light: B1 light
notes: as for B1
On to B6, for which, in the experiment with FcγRIIb, the He/Con_2b was 177 % of GpH7-A5/GpH7-B3/GpL16-k0. In addition, the He/Con_3a in the experiment with FcγRIIIa is 65.1 % of GpH7-A5/GpH7-B3/GpL16-k0.

B7: GpH7-A5/GpH7-B3 variant Y296_14T/GpL16-k0 (antibody, human IgG1, kappa)
heavy 1: not shown
heavy 2: not shown
light: B1 light
notes: heterodimerized IgG1, mutation in one H chain only; also called He Ab
As for B7, the He/Con_2b in experiment [1] was 88.2 relative (HeCon Ab = 100). The He/Con_2aR in experiment [2] is 103 relative (HeCon Ab = 100).

B8: GpH7-A5/GpH7-B3 variant L328_02A/GpL16-k0 (antibody, human IgG1, kappa)
heavy 1: not shown
heavy 2: not shown
light: B1 light
notes: as for B1
For the molecule B8, the He/Con_2b with FcγRIIb was 144 % of GpH7-A5/GpH7-B3/GpL16-k0. Besides, in the experiment with FcγRIIIa, the He/Con_3a is 79.1 % of GpH7-A5/GpH7-B3/GpL16-k0.

B9: GpH7-A5/GpH7-B3 variant L328_14T/GpL16-k0 (antibody, human IgG1, kappa)
heavy 1: not shown
heavy 2: not shown
light: B1 light
notes: as for B1
As to B9, in the experiment with FcγRIIb, the He/Con_2b is 141 % of GpH7-A5/GpH7-B3/GpL16-k0. Further, the He/Con_3a with FcγRIIIa was 75.3 % of GpH7-A5/GpH7-B3/GpL16-k0.

B10: GpH7-A5/GpH7-B3 variant N325_06M/GpL16-k0 (antibody, human IgG1, kappa)
heavy 1: not shown
heavy 2: not shown
light: B1 light
notes: as for B1
For B10, the He/Con_2b with FcγRIIb is 217 % of GpH7-A5/GpH7-B3/GpL16-k0. The He/Con_3a in the experiment with FcγRIIIa is 31.4 % of GpH7-A5/GpH7-B3/GpL16-k0.

B11: GpH7-A5/GpH7-B3 variant N325_08L/GpL16-k0 (antibody, human IgG1, kappa)
heavy 1: not shown
heavy 2: not shown
light: B1 light
notes: as for B1
With B11, the He/Con_2b in the experiment with FcγRIIb was 197 % of GpH7-A5/GpH7-B3/GpL16-k0. Also, in the experiment with FcγRIIIa, the He/Con_3a is 33.3 % of GpH7-A5/GpH7-B3/GpL16-k0.

B12: GpH7-A5/GpH7-B3 variant L328_04F/GpL16-k0 (antibody, human IgG1, kappa)
heavy 1: not shown
heavy 2: not shown
light: B1 light
notes: as for B1
Regarding B12, in the experiment with FcγRIIb, the He/Con_2b was 219 % of GpH7-A5/GpH7-B3/GpL16-k0. Also, in the experiment with FcγRIIIa, the He/Con_3a is 79.3 % of GpH7-A5/GpH7-B3/GpL16-k0.

B13: GpH7-A5/GpH7-B3 variant K334_12R/GpL16-k0 (antibody, human IgG1, kappa)
heavy 1: not shown
heavy 2: not shown
light: B1 light
notes: as for B1
Take B13: the He/Con_2b with FcγRIIb was 111 % of GpH7-A5/GpH7-B3/GpL16-k0. In the experiment with FcγRIIIa, the He/Con_3a was 90.8 % of GpH7-A5/GpH7-B3/GpL16-k0.

B14: GpH7-A5/GpH7-B3 variant L328_19Q/GpL16-k0 (antibody, human IgG1, kappa)
heavy 1: not shown
heavy 2: not shown
light: B1 light
notes: as for B1
Take B14: in the experiment with FcγRIIb, the He/Con_2b is 105 % of GpH7-A5/GpH7-B3/GpL16-k0. Moreover, the He/Con_3a in the experiment with FcγRIIIa was 81.1 % of GpH7-A5/GpH7-B3/GpL16-k0.

B15: GpH7-A5/GpH7-B3 variant Y296_16H/GpL16-k0 (antibody, human IgG1, kappa)
heavy 1: not shown
heavy 2: not shown
light: B1 light
notes: as for B7
Consider B15, for which the He/Con_2b in experiment [1] is 92.2 relative (HeCon Ab = 100). The He/Con_2aR in experiment [2] is 105 relative (HeCon Ab = 100).

B16: GpH7-A5/GpH7-B3 variant Y296_18N/GpL16-k0 (antibody, human IgG1, kappa)
heavy 1: not shown
heavy 2: not shown
light: B1 light
notes: as for B7
Regarding B16, the He/Con_2b in experiment [1] is 91.5 relative (HeCon Ab = 100). Moreover, the He/Con_2aR in experiment [2] is 104 relative (HeCon Ab = 100).

B17: GpH7-A5/GpH7-B3 variant N325_04F/GpL16-k0 (antibody, human IgG1, kappa)
heavy 1: not shown
heavy 2: not shown
light: B1 light
notes: as for B1
On to B17, for which the He/Con_2b with FcγRIIb was 143 % of GpH7-A5/GpH7-B3/GpL16-k0. Also, the He/Con_3a with FcγRIIIa is 20.7 % of GpH7-A5/GpH7-B3/GpL16-k0.

B18: GpH7-A5/GpH7-B3 variant S267_11K/GpL16-k0 (antibody, human IgG1, kappa)
heavy 1: not shown
heavy 2: not shown
light: B1 light
notes: He Ab; alteration in one H chain only; also called He Ab
In the case of B18, in experiment [3], the He/Con_2b is 12.2 % of control.
